{"source": "patent US20200308299A1", "about": "(NATIONAL UNIVERSITY CORPORATION KOCHI UNIVERSITY, published 2020)", "binders": {"B1": {"name": "GPC1-CL-MMAF (clone 01a033 conjugated to MC-vc-PAB-MMAF) (antibody, V domains shown)", "VH": "QVQLKQSGPELVKPGASVKISCKASGYSFTGYYMHWVKQSPEKSLEWIGEINPSTGDTTYNQKFKAKATLTVDKSSSTAYMQLKSLTSEDSAVYYCAREKRDDGVFAYWGQGTLVTVSS", "VL": "DIVMSQSPKSMSMSVGERVALSCKASENVGTYVSWYQQKPEQSPKLLIYGASNRYTGVPDRFTGSGSATDFTLTISSVQAEDLADYYCGQSYSYPLTFGAGTKLELKR", "modifications": "MC-vc-PAB-MMAF bound by maleimide to reduced inter-strand cysteines; DAR 4.1 (printed as 3.8 in paragraph 359)", "notes": "Antibody-drug conjugate of mouse IgG2a clone 01a033; also called 01a033 ADC; GPC1 ADC"}, "B2": {"name": "anti-Glypican-1 antibody clone K090-02b006 (antibody, mouse IgG2a, kappa, V domains shown)", "VH": "EVQLVESGGGLVKPGGSRKLSCAASGFTFSDYGMHWVRQAPEKGLEWVAYISSGSSTIYYADTVKGRFTISRDNAKNTLFLQMTSLRSEDTAIYYCVRHSYYNYDIGGYYAMDYWGQGTSVTVSS", "VL": "DIVLTQSPSSLSASLGERVSLTCRASQEISGYLSWLQQKPDGTIKRLIYAASTLDSGVPKRFSGSRSGSDYSLTISSLESEDFADYYCLQYASYPLTFGAGTKLEIKR", "notes": "also called biotin-labeled 02b006; biotin-labeled anti-GPC1 antibody 02b006"}}, "key": {"[1]": {"target": "T1, mouse Glypican-1 expressed on LLC-mGPC1-16 cells (mouse, UniProt Q9QZF2 24-529)", "T1 sequence": "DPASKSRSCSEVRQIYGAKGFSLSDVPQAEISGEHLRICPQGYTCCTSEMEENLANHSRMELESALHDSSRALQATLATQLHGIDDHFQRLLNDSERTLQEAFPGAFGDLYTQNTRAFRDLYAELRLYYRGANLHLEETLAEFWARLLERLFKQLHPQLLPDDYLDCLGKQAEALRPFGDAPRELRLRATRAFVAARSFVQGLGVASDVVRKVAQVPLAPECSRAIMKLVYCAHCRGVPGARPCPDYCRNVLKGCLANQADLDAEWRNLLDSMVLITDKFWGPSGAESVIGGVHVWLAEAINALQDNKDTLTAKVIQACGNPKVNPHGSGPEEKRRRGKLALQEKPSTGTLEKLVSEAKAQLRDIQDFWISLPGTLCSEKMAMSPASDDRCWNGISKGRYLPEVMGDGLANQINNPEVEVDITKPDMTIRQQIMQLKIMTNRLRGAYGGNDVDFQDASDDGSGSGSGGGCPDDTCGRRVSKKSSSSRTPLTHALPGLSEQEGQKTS", "experiment": "cell-based or functional assay"}, "[2]": {"target": "T2, recombinant human Glypican-1 protein (R&D Systems, CF, 4519-GP-050) (human, UniProt P35052 24-530)", "T2 construct": "Bought protein; also called recombinant human GPC1", "T2 sequence": "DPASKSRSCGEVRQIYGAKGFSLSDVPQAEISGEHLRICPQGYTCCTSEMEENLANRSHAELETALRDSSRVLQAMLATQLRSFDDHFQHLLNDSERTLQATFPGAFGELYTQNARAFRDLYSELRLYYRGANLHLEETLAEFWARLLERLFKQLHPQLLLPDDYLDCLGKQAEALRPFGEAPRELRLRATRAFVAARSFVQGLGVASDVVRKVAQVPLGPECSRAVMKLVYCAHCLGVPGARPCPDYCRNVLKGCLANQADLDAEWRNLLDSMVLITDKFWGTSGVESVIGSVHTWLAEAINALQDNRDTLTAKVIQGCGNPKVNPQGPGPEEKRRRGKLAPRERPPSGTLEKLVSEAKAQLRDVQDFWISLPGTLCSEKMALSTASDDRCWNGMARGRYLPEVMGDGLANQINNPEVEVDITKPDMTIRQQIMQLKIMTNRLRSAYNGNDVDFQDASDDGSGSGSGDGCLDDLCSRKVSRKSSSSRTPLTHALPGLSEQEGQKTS", "experiment": "ELISA on plate-coated recombinant human GPC1"}, "[3]": {"target": "T3, human Glypican-1 on the surface of human cancer cell strains (TE8, TE14 and others) (human, UniProt P35052 24-530)", "T3 construct": "Endogenous GPC1 of the cell strains; also called GPC1; GPC-1", "T3 sequence": "T2 sequence", "experiment": "flow cytometry on TE8 cells, biotin-labelled 02b006 and streptavidin-PE"}, "human Glypican-1": {"target": "T4, human Glypican-1 (human, UniProt P35052 24-530, limits assumed)", "T4 construct": "also called human GPC1", "T4 sequence": "T2 sequence", "experiment": "phage scFv panning, ELISA on immobilised human GPC1, cell-ELISA and flow cytometry on human GPC1 transformants and TE14 (Example 1)"}}, "data": [{"binder": "B1", "values": [{"measurement": "effect of suppressing growth (CellTiter-Glo, 72 hours), LLC-mGPC1-16 against LLC-control-7", "setting": "[1]", "value": 17, "unit": "fold"}, {"measurement": "binding result", "setting": "[2]", "value": "binds"}]}, {"binder": "B2", "values": [{"measurement": "binding result", "setting": "[3]", "value": "binds"}, {"measurement": "binding result", "setting": "human Glypican-1", "value": "binds"}]}]}
